To fix the notation:
B1: TEKT4 (parent)
chain: YARYHQAFADRDQSERQRHESQQL
B2: TRIM14 (parent)
chain: REQADSCREQLDIMNDLSNRVWSI
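Note: lentivirally expressed fusions sorted by FACS into six bins by GFP to DsRed ratio, PSI derived from sequencing read proportions per bin multiplied by bin number.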

In one data set the parent is B1. Nature of the data set: protein stability index of a GFP-peptide fusion (GPS, HEK-293T) (PSI 1-6); higher = more stable. Conditions: c terminus: a fixed tail appended.
For RARYHQAFADRDQSERQRHESQQL [Y1R], the protein stability index was 4.08.
On the same count and under the same terms, next, YARYHQAFAGRDQSERQRHESQQL [D10G]: 2.37.
Take YARYHQAFANRDQSERQRHESQQL [D10N]: the protein stability index is 2.33.
On the same count and under the same terms, next, YARYHQAFAQRDQSERQRHESQQL [D10Q]: 2.17.
Still for that read-out and setting: next, YARYHQAFAHRDQSERQRHESQQL [D10H]: 2.19; YARYHQAFAKRDQSERQRHESQQL [D10K]: 3.05.
Same read-out and setting: next, YARYHQAFAYRDQSERQRHESQQL [D10Y]: 2.26; YARYHQAFAWRDQSERQRHESQQL [D10W]: 2.39.
As for YARYHQAFADRDTSERQRHESQQL [Q13T], the protein stability index was determined as 1.79.
Same read-out and setting: next, YARYHQAFADRDWSERQRHESQQL [Q13W]: 1.72; YARYHQAFADRDYSERQRHESQQL [Q13Y]: 1.85; YARYHQAFADRDSSERQRHESQQL [Q13S]: 2.49.
The same measure, in the same setting: next, YARYHQAFADRDHSERQRHESQQL [Q13H]: 2.19; YARYHQAFADRDVSERQRHESQQL [Q13V]: 1.99.
With YARYHQAFADRDASERQRHESQQL [Q13A], the protein stability index is 1.96.
For the variant YARVHQAFADRDQSERQRHESQQL [Y4V], the protein stability index worked out at 3.51.
Still for that read-out and setting: next, YARAHQAFADRDQSERQRHESQQL [Y4A]: 3.28; YARMHQAFADRDQSERQRHESQQL [Y4M]: 3.21; YARPHQAFADRDQSERQRHESQQL [Y4P]: 4.
On the same count and under the same terms, next, YARGHQAFADRDQSERQRHESQQL [Y4G]: 3.08; YARSHQAFADRDQSERQRHESQQL [Y4S]: 3.44.
The same measure, in the same setting: next, YARYHQAFADRDQSERFRHESQQL [Q17F]: 2.56; YARYHQAFADRDQSERWRHESQQL [Q17W]: 2.22.
Take YARYHQAFADRDQSERHRHESQQL [Q17H]: the protein stability index was 1.9.
Same read-out and setting: next, YARYHQAFADRDQSERCRHESQQL [Q17C]: 2.07; YARYHQAFADRDQSERMRHESQQL [Q17M]: 1.73.
Same read-out and setting: next, YARYHQAFADRDQSERKRHESQQL [Q17K]: 2.13.
On the same count and under the same terms, next, YARYHQAFADRDQSERQRHESQQK [L24K]: 1.73; YARYHQAFADRDQSERQRHESQQC [L24C]: 1.67.
As for YARYHQAFADRDQSERQRHESQQN [L24N], the protein stability index was determined as 2.23.
Still for that read-out and setting: next, YARYHQAFADRDQSERQRHESQQS [L24S]: 2.27; YARYHQAFADRDQSERQRHESQQH [L24H]: 2.42; YARYHQAFADRDQSERQRHESQQT [L24T]: 2.15.
In the case of YARYHQAFADRDQSERQRHESQQD [L24D], the protein stability index worked out at 2.14.
The same measure, in the same setting: next, YARYHQAFADRDQSWRQRHESQQL [E15W]: 1.61; YARYHQAFADRDQSDRQRHESQQL [E15D]: 2.1.
On the same count and under the same terms, next, YARYHQAFADRDQSMRQRHESQQL [E15M]: 1.31; YARYHQAFADRDQSQRQRHESQQL [E15Q]: 1.97; YARYHQAFADRDQSARQRHESQQL [E15A]: 1.87.
The same measure, in the same setting: next, YARYHQAFADRDQSVRQRHESQQL [E15V]: 1.83; YARYHQAFADRDQSRRQRHESQQL [E15R]: 1.78.
In the case of YARYHQAFADRDQSTRQRHESQQL [E15T], the protein stability index turned out to be 2.07.
Same read-out and setting: next, YARYHQAFADRDQSERQQHESQQL [R18Q]: 2.24; YARYHQAFADRDQSERQTHESQQL [R18T]: 2.45.
Take YARYHQAFADRDQSERQSHESQQL [R18S]: the protein stability index is 2.59.
Same read-out and setting: next, YARYHQAFADRDQSERQGHESQQL [R18G]: 3.52.
Consider YARYHQAFADRDQSERQKHESQQL [R18K], for which the protein stability index stood at 2.26.
On the same count and under the same terms, next, YARYHGAFADRDQSERQRHESQQL [Q6G]: 2.64; YARYHWAFADRDQSERQRHESQQL [Q6W]: 2.08; YARYHMAFADRDQSERQRHESQQL [Q6M]: 2.32.
On the same count and under the same terms, next, YARYHEAFADRDQSERQRHESQQL [Q6E]: 2.62; YARYHDAFADRDQSERQRHESQQL [Q6D]: 2.73; YARYHLAFADRDQSERQRHESQQL [Q6L]: 2.02.
For the variant YARYHPAFADRDQSERQRHESQQL [Q6P], the protein stability index amounted to 2.69.
On to YARYHSAFADRDQSERQRHESQQL [Q6S], for which the protein stability index was determined as 1.77.
The same measure, in the same setting: next, YARYHIAFADRDQSERQRHESQQL [Q6I]: 2.24; YARYHQAFADRDQSERQRHESKQL [Q22K]: 2.17.
With YARYHQAFADRDQSERQRHESYQL [Q22Y], the protein stability index is 1.65.
Still for that read-out and setting: next, YARYHQAFADRDQSERQRHESSQL [Q22S]: 1.92; YARYHQAFADRDQSERQRHESDQL [Q22D]: 2.17.
On the same count and under the same terms, next, YARYHQAFADRDQSERQRHESRQL [Q22R]: 1.85; YARYHQAFADRDQSERQRHESEQL [Q22E]: 2.25.
Still for that read-out and setting: next, YARYHQAFADRDQSERQRHESQTL [Q23T]: 1.85; YARYHQAFADRDQSERQRHESQFL [Q23F]: 1.44; YARYHQAFADRDQSERQRHESQKL [Q23K]: 3.
As to YARYHQAFADRDQSERQRHESQML [Q23M], the protein stability index worked out at 1.94.
The same measure, in the same setting: next, YARYHQAFADRDQSERQRHESQSL [Q23S]: 2.41.
The same measure, in the same setting: next, YARYHQAQADRDQSERQRHESQQL [F8Q]: 4.
On the same count and under the same terms, next, YARYHQASADRDQSERQRHESQQL [F8S]: 3.86; YARYHQAWADRDQSERQRHESQQL [F8W]: 1.4.
In the case of YARYHQAYADRDQSERQRHESQQL [F8Y], the protein stability index came to 2.95.
Still for that read-out and setting: next, YARYHQANADRDQSERQRHESQQL [F8N]: 4.61; YARYHQAEADRDQSERQRHESQQL [F8E]: 4.14.
The same measure, in the same setting: next, YARYHQADADRDQSERQRHESQQL [F8D]: 4.63; YARYHQAVADRDQSERQRHESQQL [F8V]: 3.92; YARYHQAMADRDQSERQRHESQQL [F8M]: 3.92.
With YARYHQAKADRDQSERQRHESQQL [F8K], the protein stability index came to 4.01.

In another data set the parent is B2. Described as above. Conditions: c terminus: a fixed tail appended.
As to REQADSCREQLDIMNDLSNRVWSG [I24G], the protein stability index was determined as 3.72.
REQADSCREQLDIMNDLSNRVWSL [I24L]: the protein stability index was 2.46.
The same measure, in the same setting: next, REQADSCREQLDIMNDLSNRVWSQ [I24Q]: 3.34; REQADSCREQLDIMNDLSNRVWSM [I24M]: 2.79; REQADSCREQLDIMNDLSNRVWSV [I24V]: 2.17.
Still for that read-out and setting: next, REQADSCREQLDIMNDLSNRVWST [I24T]: 4.01; REQADSCREQLDIMNDLSNRVWSR [I24R]: 3.44; REQADSCREQLDIMNDLSNRVWSY [I24Y]: 2.53.
Turning to REQADSCREQLDIMNDLSNRVWSS [I24S], the protein stability index turned out to be 3.46.
On the same count and under the same terms, next, REQADSCREQLDIMNDLSNRVWSH [I24H]: 3.6; REQADSCREQLDIMNDLSNRVWSK [I24K]: 3.55; REQADSCREQLDIMNDLSNRVWSP [I24P]: 3.64.
Regarding REQADSCREQLDIMNDLSNRVWSF [I24F], the protein stability index came to 2.25.
REQADSCREQLDIMNDLSNRVWSD [I24D]: the protein stability index is 4.01.
Still for that read-out and setting: next, REQADSCREQLDIMNDLSNRVWSW [I24W]: 2.31; REQADSCREQLDIMNDLSNRVWSE [I24E]: 3.68; REQADSCREQLDIMNDLSNRVWSN [I24N]: 3.95.

(Values after the supplement of paper PMC10567573.)
